Columns and labels:
[1] = molecular target: T1, SARS-CoV-2 receptor-binding domain fused to hIgG1 Fc (SARS-CoV-2 (Wuhan/Victoria), UniProt P0DTC2 330-532); assay: SPR, trimer analyte, RBD ligand
[2] = molecular target: T2, Spike protein on live SARS-CoV-2 Victoria strain (SARS-CoV-2 (Victoria), UniProt P0DTC2 14-1273); assay: cell-based or functional assay
[3] = molecular target: T2, Spike protein on live SARS-CoV-2 …; assay: cell-based or functional assay; remark: listed apart in the source
[4] = molecular target: T3, SARS-CoV-2 receptor-binding domain (amino acids 330-532), prototypical Wuhan/Victoria (SARS-CoV-2 (Wuhan/Victoria), UniProt P0DTC2 330-532); assay: SPR, VHH analyte, biotinylated RBD ligand
[5] = molecular target: T3, SARS-CoV-2 receptor-binding domain …; assay: SPR, VHH analyte over immobilised RBD
[6] = molecular target: T1, SARS-CoV-2 receptor-binding domain …; assay: SPR, VHH analyte, RBD-Fc ligand
[7] = molecular target: T3, SARS-CoV-2 receptor-binding domain …; assay: SPR, RBD analyte, VHH_H6-Fc ligand
[8] = molecular target: T3, SARS-CoV-2 receptor-binding domain …; assay: SPR
[9] = molecular target: T3, SARS-CoV-2 receptor-binding domain …; assay: SPR, RBD binding kinetics
[10] = molecular target: T1, SARS-CoV-2 receptor-binding domain …; assay: SPR, VHH analyte over immobilised RBD

B1: C1 trimer (VHH)
chain: QVQLVESGGGLVQPGGSLRLSCAASGFTNDFYSIAWFRQAPGKEREGVSWLSVSDNTPTYVDSVKDRFTISRHNANNTVYLQMNMLKPEDTAIYYCAAGRFAGRDTWPSSYDYWGQGTQVTVSSGSGSGSQVQLVESGGGLVQPGGSLRLSCAASGFTNDFYSIAWFRQAPGKEREGVSWLSVSDNTPTYVDSVKDRFTISRHNANNTVYLQMNMLKPEDTAIYYCAAGRFAGRDTWPSSYDYWGQGTQVTVSSGSGSGSQVQLVESGGGLVQPGGSLRLSCAASGFTNDFYSIAWFRQAPGKEREGVSWLSVSDNTPTYVDSVKDRFTISRHNANNTVYLQMNMLKPEDTAIYYCAAGRFAGRDTWPSSYDYWGQGTQVTVSS
- Kd [1]: 53 pM
- T1/2 [1]: 4.03 h
- koff [1]: 4.8e-05 s⁻¹
- kon [1]: 900000 M⁻¹ s⁻¹
- ND 50 MN assay, live virus [2]: 4.9 nM

B2: C5 (VHH)
VHH: QVQLVESGGGSVQAGGSLTLSCVASGVTLGRHAIGWFRQAPGKERERVSCIRTFDGITSYVESTKGRFTISSNNAMNTVYLQMNSLKPEDTAVYFCALGVTAACSDNPYFWGQGTQVTVSS
notes: also called VHH C5
- IC50, neutralisation of SARS-CoV2, micro-titre neutralisation assay [3]: 32000 pM
- Kd [4]: 99 pM
- T1/2 [4]: 0.2 h
- Kd [5]: 99 pM
- T1/2 [5]: 0.2 h

B3: F2 (VHH)
VHH: QVQLVESGGGLVQAGGSLRLACIASGRTFHSYVMAWFRQAPGKEREFVAAISWSSTPTYYGESVKGRFTISRDNAKNTVYLQMNRLKPEDTAVYFCAADRGESYYYTRPTEYEFWGQGTQVTVSS
notes: also called VHH F2
- Kd [4]: 40 pM
- Kd [5]: 40 pM

B4: H3 trimer (VHH)
chain: QVQLVESGGGLVKTGGSLRLSCAASGRTFSTYSMGWFRQAPGKEREFVAGMRWTGSSTFYSDSVKGRFTVSRNNAKDTVYLHMNSLKPEDTAVYYCAITTIVRAYYTEYTEADFGSWGQGTQVTVSSGAVLAPQVQLVESGGGLVKTGGSLRLSCAASGRTFSTYSMGWFRQAPGKEREFVAGMRWTGSSTFYSDSVKGRFTVSRNNAKDTVYLHMNSLKPEDTAVYYCAITTIVRAYYTEYTEADFGSWGQGTQVTVSSGSGSGSQVQLVESGGGLVKTGGSLRLSCAASGRTFSTYSMGWFRQAPGKEREFVAGMRWTGSSTFYSDSVKGRFTVSRNNAKDTVYLHMNSLKPEDTAVYYCAITTIVRAYYTEYTEADFGSWGQGTQVTVSS
- Kd [1]: 0.3 pM
- T1/2 [1]: 5.82 h
- koff [1]: 3.3e-05 s⁻¹
- kon [1]: 1.2e+08 M⁻¹ s⁻¹
- ND 50 MN assay, live virus [2]: 0.4 nM

B5: A8 trimer (bispecific antibody)
chain: QVQLVESGGGLVQAGGSLRLSCAASGGTFSTAAMGWFRQAPGEERECVASIGWRGVRTWYADSVKGRFTISRDNPQNTVYLQMNNLKSGDTAVYYCAASVGNYGLPWAHFEYDFWGQGIQVTVSSGSGSGSQVQLVESGGGLVQAGGSLRLSCAASGGTFSTAAMGWFRQAPGEERECVASIGWRGVRTWYADSVKGRFTISRDNPQNTVYLQMNNLKSGDTAVYYCAASVGNYGLPWAHFEYDFWGQGIQVTVSSGSGSGSQVQLVESGGGLVQAGGSLRLSCAASGGTFSTAAMGWFRQAPGEERECVASIGWRGVRTWYADSVKGRFTISRDNPQNTVYLQMNNLKSGDTAVYYCAASVGNYGLPWAHFEYDFWGQGTQVTVSSKHHHHHH
- Kd [1]: 5 pM
- T1/2 [1]: 4.63 h
- ND 50 MN assay, live virus [2]: 0.09 nM

B6: VHH_H6 (VHH)
VHH: QVQLVESGGGLVQPGGSLTLSCVASESSLAPYRVAWFRQAPGKEREGVSCISRDAHPTSTYYTASVKGRFTMSRDNAKNTVYLQMNSLKPSDTAVYYCATDLGGYCSDSNYPRAWWGQGTQVTVSS
- Kd [6]: 472 pM
- T1/2 [6]: 0.517 h

B7: VHH_H6-Fc (Fc fusion)
chain: QVQLVESGGGLVQPGGSLTLSCVASESSLAPYRVAWFRQAPGKEREGVSCISRDAHPTSTYYTASVKGRFTMSRDNAKNTVYLQMNSLKPSDTAVYYCATDLGGYCSDSNYPRAWWGQGTQVTVSS
- Kd [7]: 261 pM

B8: C5 trimer (VHH)
chain: QVQLVESGGGSVQAGGSLTLSCVASGVTLGRHAIGWFRQAPGKERERVSCIRTFDGITSYVESTKGRFTISSNNAMNTVYLQMNSLKPEDTAVYFCALGVTAACSDNPYFWGQGTQVTVSSGSGSGSQVQLVESGGGSVQAGGSLTLSCVASGVTLGRHAIGWFRQAPGKERERVSCIRTFDGITSYVESTKGRFTISSNNAMNTVYLQMNSLKPEDTAVYFCALGVTAACSDNPYFWGQGTQVTVSSGSGSGSQVQLVESGGGSVQAGGSLTLSCVASGVTLGRHAIGWFRQAPGKERERVSCIRTFDGITSYVESTKGRFTISSNNAMNTVYLQMNSLKPEDTAVYFCALGVTAACSDNPYFWGQGTQVTVSS
notes: also called trimeric C5 nanobody; C5-6GS-C5-6GS-C5
- Kd [1]: 18 pM
- T1/2 [1]: 1.53 h
- ND 50 MN assay, live virus [2]: 0.02 nM

B9: C1-SUMO-H3-Fc (Fc fusion)
chain: QVQLVESGGGLVQPGGSLRLSCAASGFTNDFYSIAWFRQAPGKEREGVSWLSVSDNTPTYVDSVKDRFTISRHNANNTVYLQMNMLKPEDTAIYYCAAGRFAGRDTWPSSYDYWGQGTQVTVSSGSGSGSDSEVNQEAKPEVKPEVKPETHINLKVSDGSSEIFFKIKKTTPLRRLMEAFAKRQGKEMDSLRFLYDGIRIQADQTPEDLDMEDNDIIEAHREQIGSGSGSQVQLVESGGGLVKTGGSLRLSCAASGRTFSTYSMGWFRQAPGKEREFVAGMRWTGSSTFYSDSVKGRFTVSRNNAKDTVYLHMNSLKPEDTAVYYCAITTIVRAYYTEYTEADFGSWGQGTQVTVS
notes: also called C1-GSGSGS-SUMO-GSGSGS-H3
- fold increase in affinity on combining the VHHs [8]: ~40 fold
- Kd [9]: 11 pM
- T1/2 [9]: 4.1 h
- koff [9]: 4.7e-05 s⁻¹
- kon [9]: 4.3e+06 M⁻¹ s⁻¹

B10: C1-SUMO-H11-H4-Fc (Fc fusion)
chain: QVQLVESGGGLVQPGGSLRLSCAASGFTNDFYSIAWFRQAPGKEREGVSWLSVSDNTPTYVDSVKDRFTISRHNANNTVYLQMNMLKPEDTAIYYCAAGRFAGRDTWPSSYDYWGQGTQVTVSSGSGSGSDSEVNQEAKPEVKPEVKPETHINLKVSDGSSEIFFKIKKTTPLRRLMEAFAKRQGKEMDSLRFLYDGIRIQADQTPEDLDMEDNDIIEAHREQIGSGSGSQVQLVESGGGLMQAGGSLRLSCAVSGRTFSTAAMGWFRQAPGKEREFVAAIRWSGGSAYYADSVKGRFTISRDKAKNTVYLQMNSLKYEDTAVYYCAQTHYVSYLLSDYATWPYDYWGQGTQVTVSS
notes: also called C1-GSGSGS-SUMO-GSGSGS-H11-H4
- fold increase in affinity on combining the VHHs [8]: ~40 fold
- Kd [9]: 13 pM
- T1/2 [9]: 2.8 h
- koff [9]: 6.8e-05 s⁻¹
- kon [9]: 5.1e+06 M⁻¹ s⁻¹

B11: B12 (VHH)
VHH: QVQLVESGGGFVQPGGSLRLSCAVSGGTFSTYGMGWFRQAPGKEREIVAAIRRSGSTYYADSVRGRFTISRDNAKNSVLLQMNSLKPEDTAVYYCAARRAGREYEYWGQGTQVTVSS
notes: also called VHH B12
- Kd [10]: 77 pM
- T1/2 [10]: 0.7 h
- koff [10]: 0.00027 s⁻¹
- kon [10]: 3.6e+06 M⁻¹ s⁻¹

B12: C1-SUMO-C5-Fc (Fc fusion)
chain: QVQLVESGGGLVQPGGSLRLSCAASGFTNDFYSIAWFRQAPGKEREGVSWLSVSDNTPTYVDSVKDRFTISRHNANNTVYLQMNMLKPEDTAIYYCAAGRFAGRDTWPSSYDYWGQGTQVTVSSGSGSGSDSEVNQEAKPEVKPEVKPETHINLKVSDGSSEIFFKIKKTTPLRRLMEAFAKRQGKEMDSLRFLYDGIRIQADQTPEDLDMEDNDIIEAHREQIGSGSGSQVQLVESGGGSVQAGGSLTLSCVASGVTLGRHAIGWFRQAPGKERERVSCIRTFDGITSYVESTKGRFTISSNNAMNTVYLQMNSLKPEDTAVYFCALGVTAACSDNPYFWGQGTQVTVSS
notes: also called C1-GSGSGS-SUMO-GSGSGS-C5
- fold increase in affinity on combining the VHHs [8]: ~240 fold
- Kd [9]: 1.63 pM
- T1/2 [9]: 246 h
- koff [9]: 4.9e-05 s⁻¹
- kon [9]: 3e+07 M⁻¹ s⁻¹

B13: F2-SUMO-C5-Fc (Fc fusion)
chain: QVQLVESGGGLVQAGGSLRLACIASGRTFHSYVMAWFRQAPGKEREFVAAISWSSTPTYYGESVKGRFTISRDNAKNTVYLQMNRLKPEDTAVYFCAADRGESYYYTRPTEYEFWGQGTQVTVSSGSGSGSDSEVNQEAKPEVKPEVKPETHINLKVSDGSSEIFFKIKKTTPLRRLMEAFAKRQGKEMDSLRFLYDGIRIQADQTPEDLDMEDNDIIEAHREQIGSGSGSQVQLVESGGGSVQAGGSLTLSCVASGVTLGRHAIGWFRQAPGKERERVSCIRTFDGITSYVESTKGRFTISSNNAMNTVYLQMNSLKPEDTAVYFCALGVTAACSDNPYFWGQGTQVTVSS
notes: also called F2-GSGSGS-SUMO-GSGSGS-C5
- fold increase in affinity on combining the VHHs [8]: ~85 fold
- Kd [9]: 0.75 pM
- T1/2 [9]: 11 h
- koff [9]: 1.7e-05 s⁻¹
- kon [9]: 2.3e+07 M⁻¹ s⁻¹

B14: H3 (VHH)
VHH: QVQLVESGGGLVKTGGSLRLSCAASGRTFSTYSMGWFRQAPGKEREFVAGMRWTGSSTFYSDSVKGRFTVSRNNAKDTVYLHMNSLKPEDTAVYYCAITTIVRAYYTEYTEADFGSWGQGTQVTVSS
- Kd [4]: 25 pM
- T1/2 [4]: 0.583 h
- Kd [5]: 25 pM
- T1/2 [5]: 0.583 h

B15: C1 (VHH)
VHH: QVQLVESGGGLVQPGGSLRLSCAASGFTNDFYSIAWFRQAPGKEREGVSWLSVSDNTPTYVDSVKDRFTISRHNANNTVYLQMNMLKPEDTAIYYCAAGRFAGRDTWPSSYDYWGQGTQVTVSS
- Kd [4]: 615 pM
- Kd [5]: 615 pM

Source: patent US20230374116A1 (ROSALIND FRANKLIN INSTITUTE, published 2023)
